Results on one molecule are retold here after paper PMC2063869 (The Journal of Cell Biology, 2006).

The target in one experiment is T1, MBP-Apm1 (S. cerevisiae, UniProt Q00776 1-475).
T1 sequence (looked up): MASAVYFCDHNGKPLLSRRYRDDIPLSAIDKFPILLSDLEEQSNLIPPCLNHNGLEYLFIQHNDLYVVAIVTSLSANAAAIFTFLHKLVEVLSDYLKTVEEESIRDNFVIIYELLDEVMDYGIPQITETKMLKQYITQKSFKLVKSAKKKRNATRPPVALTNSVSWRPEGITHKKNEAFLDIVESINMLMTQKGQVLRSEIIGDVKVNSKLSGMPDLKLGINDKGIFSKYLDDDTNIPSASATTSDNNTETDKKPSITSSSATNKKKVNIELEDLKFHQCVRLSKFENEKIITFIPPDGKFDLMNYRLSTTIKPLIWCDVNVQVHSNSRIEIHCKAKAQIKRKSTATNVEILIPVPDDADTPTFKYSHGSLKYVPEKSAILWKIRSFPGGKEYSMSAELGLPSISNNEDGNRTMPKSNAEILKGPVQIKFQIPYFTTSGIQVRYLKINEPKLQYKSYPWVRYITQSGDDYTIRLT
Nature of the experiment: pull-down.

For another experiment, the target named is T2, MBP–Apm1-Δ2–158 (S. cerevisiae, UniProt Q00776 1-475, Δ2–158).
T2 sequence (looked up): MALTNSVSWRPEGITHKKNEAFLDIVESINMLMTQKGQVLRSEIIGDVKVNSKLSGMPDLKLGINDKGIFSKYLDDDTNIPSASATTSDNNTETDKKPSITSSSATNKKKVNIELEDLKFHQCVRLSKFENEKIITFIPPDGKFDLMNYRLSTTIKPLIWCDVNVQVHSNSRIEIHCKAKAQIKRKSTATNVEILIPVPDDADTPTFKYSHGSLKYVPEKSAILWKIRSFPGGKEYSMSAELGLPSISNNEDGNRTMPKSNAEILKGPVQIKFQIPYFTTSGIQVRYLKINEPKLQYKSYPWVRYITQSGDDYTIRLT
The experiment is described as follows: pull-down.

B1: Ste13-GST (Ste13p cytosolic domain, residues 1–118, fused to the NH2 terminus of GST) (domain or fragment, S. cerevisiae, UniProt P33894 1-118, looked up)
chain: MSASTHSHKRKNSHLFPQRKSSNSSMDKPFFPNNDSVANTDPQSNENGHTINEIRPTEATIDVTDVPQTPFLQEQYSMRPRRESFQFNDIENQHHTHSFFSVNKFNRRWGEWSLPEKR
Regarding B1, the binding result in the experiment with MBP-Apm1 and with MBP–Apm1-Δ2–158 was “binds” throughout.
